According to patent US20080153737A1:

Legend:
Assay in all cases: cell-based or functional assay
[1] = target: HIV env gp160 stably expressed on mouse melanoma B16 cells (gp160-B16) (HIV (strain not stated))
[2] = target: HIV envelope protein (env, gp160/gp120) of HIV strain IIIB on infected cells and virus (HIV strain IIIB) (UniProt P04578)
[3] = target: ErbB2 receptor on SKBR3 breast cancer cells (UniProt P04626)

Substance | uptake of FITC-siRNA by implanted tumor cells after intravenous injection (fluorescence microscopy) [1] | reduction of HIV infection in primary CD4 T cells (p24 Ag ELISA of culture supernatants) [2] [%] | reduction of HIV replication in infected primary CD4 cells (F105-P + irrelevant GFP siRNA condition) [2] [%] | uptake of FITC-CD4 siRNA by an HIV IIIB-infected Jurkat culture, 24 h (flow cytometry) [2] | uptake of FITC-labeled siRNA by HIV-infected Jurkat cells (flow cytometry) (% of infected cells) [2] | reduction of HIV replication in infected primary CD4 cells (F105 + gag siRNA condition) [2] [%] | delivery of FITC-siRNA into cells (flow cytometry) [3]
F105-protamine (Fab fragment of human anti-HIV gp120 antibody F105, heavy chain fused at its C-terminus to full-length protamine) (from UniProt P04553 1-51) | 30 % of cells | 30 | 25 to 28 | 21 % of cells | 40 | – | –
F105 (antibody Fab fragment against HIV envelope, lacking protamine) | – | 30 | – | – | – | 25 to 28 | –
single chain ErbB2 antibody protamine fusion protein ML39 ScFv-P (from UniProt P04553 8-29) | – | – | – | – | – | – | 32 % of cells
